The target of this test is cMpl receptor (human (cloned from Tf-1 cells, a human cell line)) (UniProt P40238). In words: cell-based or functional assay.

“TPO (from UniProt P40225 22-353) (ligand)” displayed a Relative Fold Luciferase activity (c-Fos promoter), CMpl-R transfected NIH3T3 cells; +TPO of 2.32 fold.

The values are drawn from US20040253242A1.
